Key:
[1] = biological target: T1, full-length murine urokinase-type plasminogen activator (muPA) (murine, UniProt P06869 21-433); assay: SPR
[2] = biological target: T2, catalytic serine protease domain of murine urokinase-type plasminogen activator (muPA), Gly2-Gly244, C122A (murine); assay: SPR
[3] = biological target: T3, catalytic domain of muPA (Gly2-Gly244, C122A) inhibited at the active site with Glu-Gly-Arg-chloromethylketone (murine, irreversible active site binding ligand Glu-Gly-Arg-chloromethylketone (EGR-cmk) in the active site); assay: SPR; EGR-cmk inhibited
T3 sequence (chain, as listed by the source C122A): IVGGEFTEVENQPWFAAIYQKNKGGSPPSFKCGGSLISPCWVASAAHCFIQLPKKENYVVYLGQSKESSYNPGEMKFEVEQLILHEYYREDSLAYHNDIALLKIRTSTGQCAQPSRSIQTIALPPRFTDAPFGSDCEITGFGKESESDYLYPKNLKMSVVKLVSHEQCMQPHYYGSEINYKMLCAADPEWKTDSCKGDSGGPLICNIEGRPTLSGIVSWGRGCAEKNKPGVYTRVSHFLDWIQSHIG

[4] = biological target: T4, full-length muPA inhibited at the active site with Glu-Gly-Arg-chloromethylketone (murine, UniProt P06869 21-433, irreversible active site binding ligand Glu-Gly-Arg-chloromethylketone (EGR-cmk) in the active site); assay: SPR; EGR-cmk inhibited
T4 sequence (P06869 21-433): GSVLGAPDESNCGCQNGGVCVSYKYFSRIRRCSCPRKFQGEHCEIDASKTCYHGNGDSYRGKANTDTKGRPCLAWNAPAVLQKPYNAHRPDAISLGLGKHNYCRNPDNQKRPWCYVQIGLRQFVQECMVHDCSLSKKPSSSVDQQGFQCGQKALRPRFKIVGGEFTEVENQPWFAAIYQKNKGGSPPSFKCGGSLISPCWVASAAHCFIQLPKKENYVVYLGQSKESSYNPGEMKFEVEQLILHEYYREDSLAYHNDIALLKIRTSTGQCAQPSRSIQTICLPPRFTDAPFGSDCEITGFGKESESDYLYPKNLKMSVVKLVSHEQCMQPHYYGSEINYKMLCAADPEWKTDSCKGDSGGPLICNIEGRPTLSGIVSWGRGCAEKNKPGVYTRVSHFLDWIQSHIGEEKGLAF

[5] = biological target: T1, full-length murine urokinase-type …; assay: SPR; remark: listed apart in the source
[6] = biological target: T2, catalytic serine protease domain of …; assay: SPR; remark: listed apart in the source
[7] = biological target: T3, catalytic domain of muPA (Gly2-Gly244, …); assay: SPR; EGR-cmk inhibited; remark: listed apart in the source
[8] = biological target: T4, full-length muPA inhibited at the …; assay: SPR; EGR-cmk inhibited; remark: listed apart in the source

T1 sequence (P06869 21-433): as above
T2 sequence (chain, as listed by the source C122A): as the sequence (chain, as listed by the source C122A) above

B1: anti-muPA allosteric nanobody Nb7 (VHH)
VHH: QVQLQESGGGLVQPGGSLRLSCAASGFTLGYYAIGWFRRAPGKEREGVSCISSSGGSTNYADSVKGRFTISRDNAKNTVDLQMNSLKPEDTAIYYCAAEWVPPGYGATVQALCNNAGYGMEYWGKGTQVTVSS
[1]
  Kd: 7.5 nM
[2]
  Kd: 11.2 nM
[3]
  Kd: 16.7 nM
[4]
  Kd: 19.3 nM
[5]
  koff: 0.00054 s⁻¹
[6]
  koff: 0.0011 s⁻¹
[7]
  koff: 0.00101 s⁻¹
[8]
  koff: 0.00084 s⁻¹
